Results reported in the supplement of paper PMC10126150.
± gives the standard deviation of the averaged measurements.

Test system: ATP
Experiment: switch fluorescence ratio, 500 uM ATP over buffer (Cy3 cluster intensity, sum of 5 cycles each) (fold (ratio)); higher = stronger signal-on switching upon ATP binding; sequences stand for … in TCGTCGGCAGCGTCAGATGTGTATAAGAGACAGTTTTTTTTTTTTTTTTTTTTTTTTT…TC
Conditions: aptamer strand: ATP DNA aptamer (quencher-CACCTGGGGGAGTATTGCGGAGGAAGG + anchor), 100 nM annealed; ATP concentration: 500 uM
Outline: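 Per cluster, summed Cy3 intensity from the target cycles was divided by that from the buffer cycles to give the fluorescence ratio, then averaged per switch-domain sequence. Clusters outside 100-1000 RFU were excluded. The Cy3-labelled switching-strand clusters, on a modified Illumina MiSeq flow-cell, were annealed to 100 nM quencher-labelled ATP aptamer and imaged in selection buffer, then after 15 min with 500 uM ATP at 22 °C, for five cycles with NaOH stripping and re-annealing between them.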
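Further: ATP exposure 15 min at 22 °C before imaging.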

Row | Sequence | switch fluorescence ratio
1 | GGGAAAAACA | 1.02 ± 0.05
2 | GGGGGGCACC | 0.994 ± 0.021
3 | TTTCAAATCA | 1.01 ± 0.037
4 | ATTGGCTTT | 0.9788 ± 0.0025
5 | ATGGTTCCCC | 1.03 ± 0.013
6 | TTGCACACGC | 1.26 ± 0.08
7 | TACGAGCGAA | 1.34 ± 0.014
8 | GCAAGGGGTG | 1.1 ± 0.065
9 | TATGATATTA | 0.9907 ± 0.0064
10 | TATGAGTATT | 0.9875 ± 0.0026
11 | AGGTGAGAAT | 1.16 ± 0.035
12 | GCGTGCGTGT | 1.03 ± 0.032
13 | ATTGGCTTTA | 1.004 ± 0.0034
14 | ATAATCTGCG | 1.01 ± 0.012
15 | GGTGTGTACG | 1.28 ± 0.41
16 | TTATGAGTCG | 0.979 ± 0.032
17 | GAAGATACGG | 1.03 ± 0.032
18 | GCCGTCTGTG | 0.9728 ± 0.0039
19 | GCACGGGCAT | 1.01 ± 0.035
20 | ACATAACGAA | 1.21 ± 0.013
21 | GGGCTTGTCC | 0.98 ± 0.043
22 | AGTTGGGGGG | 0.986 ± 0.01
23 | GTGGCTTGGG | 1.02 ± 0.018

Row | Sequence | switch fluorescence ratio
24 | TGTTGGCAGG | 1.02 ± 0.012
25 | CATAAGATGT | 1 ± 0.021
26 | AAATGCTTTA | 1.03 ± 0.022
27 | GATTAAGAGC | 0.999 ± 0.044
28 | TGATTTGTAT | 0.968 ± 0.018
29 | CGATGTGTGT | 0.991 ± 0.035
30 | TGATATAGTG | 1.002 ± 0.01
31 | TTTGAAGGTA | 1.01 ± 0.025
32 | AAGGGGAGGT | 1.02 ± 0.041
33 | CGGGGGAGAC | 0.971 ± 0.019
34 | GGCGCAACCG | 1.09 ± 0.015
35 | TGGTTGCGGC | 0.986 ± 0.03
36 | TAGGATGGCC | 0.9522 ± 0.0012
37 | AGAGGGGTAC | 0.992 ± 0.047
38 | AATGTCAGCG | 0.999 ± 0.037
39 | AAAGCGTGCG | 0.964 ± 0.022
40 | TTGGTTGCAA | 0.983 ± 0.029
41 | GTGTCGTGGC | 1.012 ± 0.0029
42 | GTTTGGGCGG | 0.978 ± 0.057
43 | ATGACCTGGG | 0.9769 ± 0.0049
44 | AGCGACGTTT | 0.9647 ± 0.0064
45 | AGGGGGTAAA | 0.975 ± 0.021
46 | GGATTTTAGC | 0.9835 ± 0.0024

Row | Sequence | switch fluorescence ratio
47 | TCAGGAGGTG | 1.07 ± 0.019
48 | CGTTTAACTC | 1.05 ± 0.055
49 | TTTATTGATG | 0.997 ± 0.016
50 | GGAAGTTAGA | 0.9819 ± 0.0036
51 | GGACAAGGGT | 1.02 ± 0.037
52 | AGATATGCGT | 1.025 ± 0.0013
53 | AGGGACTGGT | 1.01 ± 0.036
54 | ATTGTCATGG | 0.999 ± 0.028
55 | TGGGGTTGCG | 0.981 ± 0.032
56 | GAGTCGGGTA | 1.028 ± 0.0097
57 | TGGGAGGAAT | 0.988 ± 0.037
58 | TTGTGGGGCT | 0.9974 ± 0.009
59 | TCGTTATGT | 0.97732 ± 9.1e-05
60 | AGTTTGTAGT | 1 ± 0.011
61 | GTAATAAGAG | 1.004 ± 0.0063
62 | TTTGCCGGTA | 1.01 ± 0.014
63 | TTTTGTTACA | 1.011 ± 0.0029
64 | ATGATGGGCT | 0.9654 ± 0.0059
65 | GGTGTGTGCT | 0.989 ± 0.049
66 | ATGCATTACT | 1.61 ± 0.11
67 | GTCTAAGGAT | 0.995 ± 0.042
68 | TATTGGTGTT | 0.99 ± 0.015
69 | GGTTTCGGGC | 1.03 ± 0.044

Row | Sequence | switch fluorescence ratio
70 | TTGCGACGGT | 1.02 ± 0.023
71 | GGCCGGGAAT | 0.9941 ± 0.0028
72 | GTCGTGGCGA | 1.01 ± 0.02
73 | TTTCAAGCAT | 1.02 ± 0.017
74 | CGAAAGCGGC | 1.23 ± 0.014
75 | CTGTGGTTGG | 0.981 ± 0.011
76 | AGAATTTATT | 1.01 ± 0.039
77 | TCCAAAAACG | 1.15 ± 0.21
78 | AGGGGTTAAC | 1.04 ± 0.042
79 | ATGTGCAGGG | 1.03 ± 0.013
80 | TATGATGGTG | 1.04 ± 0.035
81 | TCGAGGTTGC | 0.993 ± 0.025
82 | CGTTGAGTCG | 0.992 ± 0.06
83 | GATAAGGGTG | 1.07 ± 0.0053
84 | GGGGCCAAAA | 0.947 ± 0.11
85 | TTTCTATATA | 1 ± 0.052
86 | TGTCGGAGGT | 1.02 ± 0.05
87 | TACCATTTTG | 1 ± 0.028
88 | CCCTAGTGTG | 2.97 ± 2.6
89 | GGGTAAAGGA | 0.985 ± 0.028
90 | ATGGTTATCT | 1.01 ± 0.034
91 | GGAGTCGACG | 1.02 ± 0.012
92 | TATATTTGTT | 0.997 ± 0.039

Row | Sequence | switch fluorescence ratio
93 | AGGAGCGTCG | 1.01 ± 0.013
94 | TCTGGGAAGA | 1.02 ± 0.044
95 | GGACGGAGGT | 0.959 ± 0.038
96 | CTGGTAGGGA | 1.06 ± 0.044
97 | GGTGTAGGGG | 1.04 ± 0.074
98 | GGTTGGCTTT | 1.01 ± 0.069
99 | TTTGCAAATT | 1.03 ± 0.039
100 | ATAAGTAAAT | 1 ± 0.018
101 | AGGACAAAGG | 0.989 ± 0.041
102 | CGGGGTCTGG | 0.978 ± 0.015
103 | ATGGTGTGAG | 1.02 ± 0.016
104 | GCTTTTCGAT | 0.994 ± 0.035
105 | ACAATGTGTG | 0.985 ± 0.038
106 | GTTTTCACTC | 1.0086 ± 0.00085
107 | AACTAGATCG | 1.02 ± 0.028
108 | CTATATGGAC | 1.05 ± 0.017
109 | TGGGGGGGAA | 0.999 ± 0.021
110 | CTGGGGTTTT | 0.991 ± 0.032
111 | CCACTTATGC | 1.13 ± 0.089
112 | TTGTGGGGGC | 0.991 ± 0.038
113 | GACGCACTGG | 1.853 ± 0.0015
114 | GATAAGAGTG | 1.02 ± 0.052
115 | GGGGTTTCTT | 0.987 ± 0.048

Row | Sequence | switch fluorescence ratio
116 | TCGGTAGCGA | 1.14 ± 0.17
117 | AATAAGGTTG | 0.982 ± 0.04
118 | TGGGGTCAGC | 1.001 ± 0.0097
119 | TTTTTAACGC | 1.3 ± 0.29
120 | GGAGAGGGCG | 0.991 ± 0.066
121 | ATGATAGTGA | 0.991 ± 0.012
122 | CAGAATGGTG | 0.978 ± 0.028
123 | GCGGAATATG | 1.13 ± 0.018
124 | GGGGGCGGAT | 0.992 ± 0.024
125 | TCATGCGGTG | 0.967 ± 0.01
126 | GTGAGTCTAA | 0.993 ± 0.018
127 | ATAATTTTAC | 1.07 ± 0.041
128 | ATTGGGTTTC | 0.982 ± 0.021
129 | ATCGTGATCC | 1.016 ± 0.0094
130 | GGTAAATTTT | 1 ± 0.018
131 | CGGCGGCAG | 1.03 ± 0.064
132 | CCGTTTTTGG | 0.993 ± 0.016
133 | TTTCTGATTT | 0.983 ± 0.022
134 | TTTCGTATTG | 0.991 ± 0.02
135 | TTCCAGATTT | 1.02 ± 0.062
136 | CCTTTGGTTA | 1.03 ± 0.028
137 | TACAAGTAT | 0.997 ± 0.028
138 | CTGTGTTCTT | 0.9864 ± 0.0065

Row | Sequence | switch fluorescence ratio
139 | GGGTCTAAGG | 1.007 ± 0.0045
140 | CTGGGGATTT | 1.02 ± 0.013
141 | ATTACAGGAC | 1.08 ± 0.012
142 | GTTTTCTATA | 0.975 ± 0.039
143 | GCTTGACG | 1.004 ± 0.01
144 | TAGTGAGGGT | 1.01 ± 0.021
145 | TGGCACCATT | 1.06 ± 0.047
146 | TTTTTGATAA | 0.9683 ± 0.0063
147 | TGAATCTGTT | 1.02 ± 0.05
148 | TTATTTAAGG | 1.01 ± 0.031
149 | CCATTTTCAT | 0.99 ± 0.041
150 | GTTAGGGGCG | 0.982 ± 0.013
151 | AGGGACGAAT | 1.25 ± 0.092
152 | CGAAAAGGAG | 1.01 ± 0.015
153 | GGCGGCGAGG | 1.02 ± 0.011
154 | TGGATCAGAG | 0.9984 ± 0.0013
155 | GTGAAAGCGT | 0.961 ± 0.016
156 | GTGTTATCTG | 0.978 ± 0.012
157 | TCGGGGGGTC | 0.981 ± 0.043
